This note sets out measurements from the DeepSol protein solubility set.

The series in a line: soluble on expression in E. coli; label from the status in PepcDB or PDB records.
“MAHHHHHHMKPSQPSYDKRAYQTIYPQYLDAELTPHDGRRLTRTQAVDDPTTNEVVEALKELGYTDIFVEPSASFPRSQGSIKYIMPPKGCVKVAIKRPKGEHYIPKSDFDTQTRGVTVEDIPNKMELLRRVSALIKIQHALKKQAEAAAASQTANTRKK”: the “soluble on expression in E. coli” value is “soluble”.

In the case of “MAHHHHHHMKQVKAAFEANKRVYESVLLTFKGVDGYDVYNCSVPFSYKGKTHIYGRVEKRDIWAASHVRLFEETGKDEFTAVPELSWELEDPYIAKINNEMIFGGTRVRKNGNAILSYYGYFYRGTPDELTYFTRGPGCMKDIRVLQLQDGRLGVFSRPRVGRKASIGFVILNSIDELGAEVIAKAPPLDILSENAWGGVNQAYLLSSGKVGCIGHYSYEDTNEKQQPQSVYVNYAFVLDPQSRAITGAKIIGTKSCYPPCEPKVPLLADCVFASGIVMRSDGKVDLYSGVGDSHEGRITIDYPFKGHGTIIGDLHFPMASSL”, the “soluble on expression in E. coli” value is “soluble”.

For the sequence “MAHHHHHHMLHEPVSTANGHMPRRSSLGCRLRSSPFLSCVAYVNTLTCDSLMHALRATVSQRIATGVDVECHRLTSGAAVVSTPTQVHISITSANFVRQRSSRPALLPLLTHPPPPSPSLHPVMSRSRQQQAAEVTLHHFFKTERVIRLECERREAKARLKLIDIMSGDLDDQLLCVAQFKKEWLQSRRVLEEARQAVVQEEGSKRAYVEEEYVRTINTMSRHYHPLSSRVV”, the “soluble on expression in E. coli” value was “not soluble”.

Consider “MAHHHHHHMLHNGKKNPTQAVDDGNPRKSKHREVGSHCKGLDKKENINKSGEEHIKKVEGRENCEPHDIKRRGEIDKVLIQCEELQRKELEALKLIYVRDRELVIQNENDEKRDTIIHMQLNDENISDNVINLTFELPKDYPLKSFLLIDINVKNFTPDMNNYLNQEVYKDMPNYIAHENSILSIIYRINELVENIQNSKKTSVDHSYLSSEEREEYVEEGAFDPSEDQLIKDHVPFLYCSGMTYSHHRRVLARRLCYSHHILSLVKRTYIIKWAKDLKIGGYSKIGYPGIIICEGPKEEVDFYINSLNKLRWKHFDCRGMEDIILKEYEDLDDARVLPRTMYELDPKGMSTLSNICTECGLRDLFLTSMKIYHT”, for which the “soluble on expression in E. coli” value is listed as “not soluble”.

As to “MAHHHHHHMLQNMSNILDRTCWSCFFFFLKRKYSYMRRGTSTYPTTGCPLKKHEGGSHCPRARNWTASAGDIVGNGRRAEVGLARLKS”, the “soluble on expression in E. coli” value is given as “not soluble”.

As for “MAHHHHHHMLQRVLARLPGAPACISDPLHMRALLELIGYVEPGDNLNRVAYAGELHYPPQAHAFMAELLAEGRQRDGGDAFDAIRERRAGPGYAIDSATTSEVDDAIGVCVDGATGAKYFVVYVSDATVYCPFDSTLEQLTARRLTTTTYLPEGVFFMLPKPIVEAATLREDRPCRTFNVIFQIDESTGEVKNYSVAVGWLDQLRRITYDQVQEIVNKEEGKEEGDEHDSAAVVAAAHDTDASSSPPLLAGCADSAHPPPAWMTREDKDNLFYILRCARLRLRARLERQQRQQQQHHHGAGGKDCGDEGVPATPPVDFSLPDPLIEVKGTKVLSVTDQVISTQDARLAVAELMIAANEVCSRVAQANHIAMPFRGTRTLSSDHLVAHYYTEPEGVRTLMSLDASHIFLAEAMQSSVRRLSTVTRAIYHHVPLHHAGLDTTFYTHSTSPLRRYADMLVHHQLKTWLWQQRRGGGSSDHTSATSTSAARAAMVAAPQQLIPEHAMASLCTMISAKQERASLLQDNSTRFWILRYLEDLERASANAAAAARGDGDGDTHRKKTYLCLVGETRRVVAAPAYSRFACSSAEMSQLLSLPLTAPSTTSSTVRRPASLQMDAVARWRQETPEFTYVSDVYIPEVQLAHTITHHRDDVLVGAVLECHITRVQPTQGVLELAIERVLPGGDERHYERLWMGGFVSQLDA”, the “soluble on expression in E. coli” value was “not soluble”.

As for “MAHHHHHHMLRLTQAVLRVQSHQKKRAQHPNAGTRFGRVYNRGFVRYGFGGFGMSVYSSKKDRTFKVMPVPPPPPATTAVEQRDDFADNRGLSATTRTLSPTFRMFALEDGGVLVSHPSHAQIMRWNQRVHTEEGKAANSTVMDEYVNSRIQAIIADNTIENTSLSQWRKAHMWNVIKSHGKLQRRWGTPDFVMGARSTLYNN”, the “soluble on expression in E. coli” value was “not soluble”.

Take “MAHHHHHHMLTDNQNCLEMERSDKRVTVALINTRSGERTAAEFVRKQMETHLGEENVFYLFPSGKPAIAEAKKFLERHNPAVVIVAGGDGTVSLALDITDGLRRTNMLSATSAYVAVLPMGTGNDLSRTLGFGGGYVKPLLNPEKKFKRLLDRLAHAKGIKMDRWSVQIQKKSTLTVASTGEDAHAGDSSRTYGVDDVHVVEKTMMNYFSIGFDATIVRQFNDFRNDHPTMCSQRSLNKLWYGCFGCGSMCNSVALPRKQMKLTVDDKCVAIPPGTKALLVTNVKTYAGGAVLWKDNRCRFAKPDVGDGLLEVTALYGVWHFAGVRMGIRKAMKVAQGNCIRIETPAYFAMQLDGEPVDELACGEEMIDVSITFFSRTLVMTCEGS”: the “soluble on expression in E. coli” value was “not soluble”.

Regarding “MAHHHHHHMLVFRRNFSRFINNNTPKRGVRKVLHKNVTQYGKYTPNSNIVNQQNDNNKLVRGGGGLLSTFYESFIYGCGFFLSNRLLDQIFGPRTYDSFSNNMDYSNENSGGQAPDNYNSYPSENLNNNDPTINDNDFQQDIGLDDDTFDF”, the “soluble on expression in E. coli” value was “not soluble”.

“MAHHHHHHMLWAIKHTDYPTMSTGLETLDLFLENVSKSEYAEVFFKAYMQRILVDVMVASMDSLHASGFQHHVRILQKLFNVSSMVPPDTPTIGKDVIRAYLLDSLTVIPTLTTTSILSFVDTCYESFTDDERFRTQFADFLIEVKVWGAEQENKMQEEDERRLREETIPGFSNLSMEIRRQTCSPPSDPGRCADGQGRGPASVRRFHCRRHRHPSKYTCTPLSLFPLKNPSADPAVRDVRPSYFVDCVGG”: the “soluble on expression in E. coli” value is reported as “not soluble”.

In the case of “MAHHHHHHMLWVDKYRPKSLVEVELYPELTEVLKRLAESQDLPHLLLYGPSGTGKKTRAMAVLHHVYGPSVYSLRLEHRSVQVTDSKVVDIATLSSPHHIDINPSDAGNYDRVIVMQMIREIAQTVSLQSSTSNGVKYKVVLLNEVDKMGRAAQHALRRTMEKYMSTCRLVLICNSTSRLIAPLRSRCLAVRVPSHSKENLTKVIRGVCERENRPLPSPEFMATVTQRSEGNLRRALLMVEAAAMTKVDFSGNGADIPQPDWRVFLDEIANDILSEQTPKKLHEIRGKFYNLLGQCVSGELILRLVLEKLMSAVDPALRRPLVALAAQYDHNMKLGTKTIVHLEAFAAGVMQLLKQK”, the “soluble on expression in E. coli” value is “not soluble”.

With “MAHHHHHHMMKLNRNVLFKKGEKITYSVKSVIFIINVIRTRGEEDDDNNNISGKSILGTSHNNISNIDLSSIPNLDSNIHASFSSDTKEWSPNNLTSKKKKKKKEIRPKDIMSNSDSSNTSSINKQNNNQIKSVLLKENKGVKITGPCNVNLSIFLVPHIYIDVETKYNNIELKYELDEFSDSIKFKDTTTELRTSDDTLMNTNFNVGVSRDTLDKDRLYNICAENKTFKFVVYIKDNILTLKWKVYETGVTNNKVDIRQYKMKELTRPITTIQIHSVSENKDTHLLESKNYVIKTDIPETCDVMATNCFLSGNINIEKCLECTLLVQNNDTSSECFTYVSNDVRENFNQIKAEAEDDENFRNYHLTDTINNILKRIYKINKNEGKKELITLEELDNFLKESITDYCKILREIDTNGTLVNHELGNNVDVFNNLIRLLKLHKNESISTLHNKLRNSAICMKYPDKWIEKKTGLILPNVVNNNIIYNNKYEKLNEEKKRKIYDNKDDSKISDIINIKKYIFTNNTLKYFNNDKQFCNSSFCNRLKDENNCISKIQIEDQGNCAISWIFASKYYLETLKCMKGYEPHAISALYIANCSKRKHKNRCNVGSNPLEFLQIIEENQFLPMDTNYLYSYTKVGNDCPDEEKNWVNLLKHTRMLNYNNKHRSTLSTKAYRAYESEHFKDKMDTFIKLIKDEIMNNGSVIAYVKAENVLGYELNGKNVQNLCGDKTPDHAVNIVGYGNYINDEDEKKSYWIVRNSWGKYWGDEGYFKVDMYGPSTCEDNFIHTVVVFNINMPKSKKSPVKITFPLYNYYLKYSPDFYHNLYYKNFNSKKSMKLVNASDEHKNIYSQEDKVNHKKGSKILNSEVTTSLLSQEISQRRGEDDDIDTLIGDSPDINEQEKNIKDEFNKSSITHNSVSSSNITKSNKNTNKVKIYHIIKHVKNTKIKIGFVKYDNYNTIGTNHTCSRSYSEDQEKHEGCIKFCELHWNECKDKTSPGYCLTKLKGSNECFFCYV”, the “soluble on expression in E. coli” value is on record as “not soluble”.

Regarding “MAHHHHHHMNFPDSRVLSDEFPRRKYKPSSATRLEDIVLKGLHYGQRKLLLSEIEFLSAYLEGRQAGAKPTLVVYAGAANGSHLPFLFQLFEAVKFVLIDPAPFCDAVREISLNKQGPILDLVQGFCTDELCKQLSSSYGSTYDILLVSDIRSGVPEKQSNRENTLMIMRDNDMQRSWCWTLKAEAALLKFHPPYPPCRDRNSRHYDEADDTPESIEYLDGVRLFGVWAPKSSSELRLCVQGPFLQGTSFPMRRYDCTTHEEQCYFYNTDNRYTRDCAAESGILERYLQLFPSAPYSDPTALSMTISNFLGFPLFLPLDSSFSESDARWVTLLYSTRIPTCLELFTTLRGRVTHTVMKQLAEEWQSATTVPKGVSIDSVELTSEFWKAVCAGDLTEAYSFPNIRWRFANLLISRRRKRSASDRAP”, the “soluble on expression in E. coli” value was “not soluble”.

Regarding “MAHHHHHHMNILHKIFTPGSKSKKTLLHCDAELGDRQSHSSSKVSTAVQVKSKLTAASSDDDDCGPLMRSVSMTVVSDPVPSSFKTNSSFANQSRPTQGPASFKSARLANSFSNASCHLERHHQHTAALASSVSRHNQRSLFDKIHSSGSFAVGETTVSGGSFTANGGTVNLWRLPWTQQKVTMCPNCHRPRQRDRTMQVSRASYTLQETTIENGMGDDMSEANEDMSYSDSEGMGGPMSDSVTCRCGVVSEGDAPLDYDDSAEATEEHPKLFVVETQNPSAVQLPGTIAEASDSEGEGREDVRRSYKLSLVSSPTPTSLRRRAPRVQPLLSGASPQTNTASVPKRVTHWLHEQQTSEARVVLKPKAAR”, the “soluble on expression in E. coli” value was “not soluble”.

For “MAHHHHHHMNKDTICAWCFDVLKYELKNEKFDKVPPLIQSLHNDGFKIPFFVKWMKLNDVKDMGSYNYDAYELNGCIGCLGETDIMELRYYALESSLNDTRFYPITLKDFPFLIVTITYLFNFEKCAHVYDWVIGKHGIKISFVANKRRYSSTFLPEVASQHNFDHQTTVKKLIRKANYRGEINDELLENIEVERYEGVSCSLTHVDYERV”, the “soluble on expression in E. coli” value is on record as “not soluble”.

Turning to “MAHHHHHHMNVINRMLSRGHVAASASLPIKERPFPVNYGLSTFKWHLDSRKPSKAILLHDLFGSSAYWQMLLHESLGRLPCSGLTPLVPLELFAVDFRGHNHSKSLPCPEEGRAFTMACAADIMLLQQQVLRADAKLVGIGFGALVACQAALHSPESGIDSLVLIVNGPSDLLACEPARYSLPSFISDIPKEISSVADLEHHLHKRVPNEAERALILSTVEQREGTVGFKFNETLFQFRGPLCGFSDVGPENIFTKPVTVIQCGSEEFSGEAKSDFMKHFPKAKFVLFEGDRSGGISGLSAQGPAVTRTLLEAMELLGETTGGEE”, the “soluble on expression in E. coli” value is listed as “not soluble”.

As to “MAHHHHHHMPLTCRSFCEWALAYMGTQEYTPSIIQQRNSMAAAERDPDDRNVLDFSTYEDYLDQQVTGEDLFYLEDQDAARKIVELGYKGKDVLSREEFEAAQYLARTGPLKRRESAEVITSAGKDVSDSPLLTALAKREELVRTGKLATVLFLRDYVSGQEVSAYIDYGYRLRSENFEAYFKKDKKLLPKRSDLSYYNWKTHTLFYNNSPTFQVLADSTLGLVMKHKRDRKAIHVDPNSPSPGENCSRTVVPCKDYLQAVIYDHVTRRKN”, the “soluble on expression in E. coli” value is “soluble”.
